In this assay the target is T1, HY03M (human).
T1 construct: Homodimer; also called SIRPαD1-Fc (N89A)
The experiment in a line: ELISA on coated FcγR; HY03M is the reference against which HY03MM was decreased (FIG. 9A).

T1 sequence (chain, as listed by the source limits assumed): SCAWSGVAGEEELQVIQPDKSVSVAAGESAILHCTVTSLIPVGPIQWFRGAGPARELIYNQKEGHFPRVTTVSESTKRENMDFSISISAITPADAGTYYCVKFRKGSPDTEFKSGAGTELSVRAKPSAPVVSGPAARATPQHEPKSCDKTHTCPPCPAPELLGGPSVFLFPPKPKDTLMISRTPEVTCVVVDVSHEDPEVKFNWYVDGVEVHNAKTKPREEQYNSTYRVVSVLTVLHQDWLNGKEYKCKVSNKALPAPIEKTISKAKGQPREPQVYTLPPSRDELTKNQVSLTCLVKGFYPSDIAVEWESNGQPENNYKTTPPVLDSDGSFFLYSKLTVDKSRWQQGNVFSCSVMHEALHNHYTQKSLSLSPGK
Method: The binding activities of proteins of the present invention to FcγRs were tested by ELISA as follows.
The plate was left in a refrigerator at 4° C. overnight. Immediately before the test, the plate was washed by 0.05% PBS-T and then blocked by 3% skim milk for 1 hour at room temperature. […] After incubated at room temperature for 1 hour, the liquids in the plate were discarded. […] The plate was incubated at room temperature for 1 hour and then washed by the washing solutions for 5 times. Thereafter, HRP substrates were added to the plate, and the plate was left for colorimetric reaction for 10 to 20 minutes in the dark. The colorimetric reaction was terminated later using 1 N H₂SO₄, and the OD450 value was obtained in a plate reader.

B1: CD32b (FcγRIIb) (receptor, UniProt P31994 46-217, looked up)
chain: APPKAVLKLEPQWINVLQEDSVTLTCRGTHSPESDSIQWFHNGNLIPTHTQPSYRFKANNNDSGEYTCQTGQTSLSDPVHLTVLSEWLVLQTPHLEFQEGETIVLRCHSWKDKPLVKVTFFQNGKSKKFSRSDPNFSIPQANHSHSGDYHCTGNIGYTLYSSKPVTITVQAP
notes: Bought recombinant protein coated on an ELISA plate
As to B1, the binding result was “binds”.

B2: CD64 (FcγRI) (receptor, UniProt P12314 16-288, looked up)
chain: QVDTTKAVITLQPPWVSVFQEETVTLHCEVLHLPGSSSTQWFLNGTATQTSTPSYRITSASVNDSGEYRCQRGLSGRSDPIQLEIHRGWLLLQVSSRVFTEGEPLALRCHAWKDKLVYNVLYYRNGKAFKFFHWNSNLTILKTNISHNGTYHCSGMGKHRYTSAGISVTVKELFPAPVLNASVTSPLLEGNLVTLSCETKLLLQRPGLQLYFSFYMGSKTLRGRNTSSEYQILTARREDSGLYWCEAATEDGNVLKRSPELELQVLGLQLPTP
notes: as for B1
Consider B2, for which the binding result was “binds”.
